Assay results from patent US20200085789A1, “USE OF A PROTEASOME INHIBITOR FOR THE TREATMENT OF CENTRAL NERVOUS SYSTEM (CNS) CANCERS” (Celgene International II Sàrl, priority 2017, published 2020).
Where two headings read alike, the source gives them in different places.

Tests used:
[1] = Adverse events and dose-limiting toxicity (NCI-CTCAE v 4.03), MRZ ± BEV in recurrent grade IV malignant glioma patients; assay type: in vivo, human
From the text: An adverse event (AE) is any noxious, unintended, or untoward medical occurrence that may appear or worsen in a subject during the course of a study. […] Any worsening (i.e., any clinically significant adverse change in the frequency or intensity of a pre-existing condition) should be considered an AE.
The severity/intensity of AEs will be graded based upon the subject's symptoms according to the current active minor version of the Common Terminology Criteria for Adverse Events ( ).

[2] = Bevacizumab serum pharmacokinetics, peak and trough (Part 1 Phase 1); assay type: in vivo, human; details: for Cmax D 1: C1D1; for Cmax D 15 / Cmin D 15: C1D15
From the text: The drugs were infused on 28-Day Cycles.

[3] = tested on: WHO Grade IV malignant glioma; details: cited from earlier work
[4] = Day 0, 10 mg/kg dose (Gordon et al., 2001); cited from earlier work
[5] = MRZ 0.7 mg/m^2 + BEV, Cohort 2 (N = 3)
[6] = MRZ 0.8 mg/m^2 + BEV, Cohorts 3 & 4 (N = 27)
[7] = treated with MRZ 0.8 mg/m^2 + BEV (N = 27)
[8] = Heiland (Freiburg, Germany), All Pts
[9] = Heiland (Freiburg, Germany), Methylated
[10] = Heiland (Freiburg, Germany), Unmethylated
[11] = Wick (EORTC 26101 P2), Methylated
[12] = Wick (EORTC 26101 P2), Unmethylated

bevacizumab [reference compound]
Grade ≥3 Ataxia related to the labelled drug, patients [1, 5]: 0
Grade ≥3 Confusional State related to the labelled drug, patients [1, 5]: 0
Grade ≥3 Delusion related to the labelled drug, patients [1, 5]: 0
Grade ≥3 Dyspnea related to the labelled drug, patients [1, 5]: 0
Grade ≥3 Embolism related to the labelled drug, patients [1, 5]: 0
Grade ≥3 Fall related to the labelled drug, patients [1, 5]: 0
Grade ≥3 Fatigue related to the labelled drug, patients [1, 5]: 0
Grade ≥3 Hallucination related to the labelled drug, patients [1, 5]: 0
Grade ≥3 Headache related to the labelled drug, patients [1, 5]: 0
Grade ≥3 Hypertension related to the labelled drug, patients [1, 5]: 1
Grade ≥3 Hyponatremia related to the labelled drug, patients [1, 5]: 0
Grade ≥3 Insomnia related to the labelled drug, patients [1, 5]: 0
Grade ≥3 Intracranial Hemorrhage related to the labelled drug, patients [1, 5]: 0
Grade ≥3 Optic Nerve Disorder related to the labelled drug, patients [1, 5]: 0
Grade ≥3 Proteinuria related to the labelled drug, patients [1, 5]: 1
Grade ≥3 Ataxia related to the labelled drug, patients [1, 6]: 0
Grade ≥3 Confusional State related to the labelled drug, patients [1, 6]: 0
Grade ≥3 Delusion related to the labelled drug, patients [1, 6]: 0
Grade ≥3 Dyspnea related to the labelled drug, patients [1, 6]: 1
Grade ≥3 Embolism related to the labelled drug, patients [1, 6]: 1
Grade ≥3 Fall related to the labelled drug, patients [1, 6]: 0
Grade ≥3 Fatigue related to the labelled drug, patients [1, 6]: 1
Grade ≥3 Hallucination related to the labelled drug, patients [1, 6]: 0
Grade ≥3 Headache related to the labelled drug, patients [1, 6]: 1
Grade ≥3 Hypertension related to the labelled drug, patients [1, 6]: 5
Grade ≥3 Hyponatremia related to the labelled drug, patients [1, 6]: 0
Grade ≥3 Insomnia related to the labelled drug, patients [1, 6]: 0
Grade ≥3 Intracranial Hemorrhage related to the labelled drug, patients [1, 6]: 1
Grade ≥3 Optic Nerve Disorder related to the labelled drug, patients [1, 6]: 1
Grade ≥3 Proteinuria related to the labelled drug, patients [1, 6]: 0
Anaemia: # Patients, AE related to the labelled drug(s) ([1]; pts on MRZ+BEV): 0
Anxiety: # Patients, AE related to the labelled drug(s) ([1]; pts on MRZ+BEV): 0
Aphasia: # Patients, AE related to the labelled drug(s) ([1]; pts on MRZ+BEV): 0
Appendicitis Perforated: # Patients, AE related to the labelled drug(s) ([1]; pts on MRZ+BEV): 0
Asthenia: # Patients, AE related to the labelled drug(s) ([1]; pts on MRZ+BEV): 0
Ataxia: # Patients, AE related to the labelled drug(s) ([1]; pts on MRZ+BEV): 0
Confusional State: # Patients, AE related to the labelled drug(s) ([1]; pts on MRZ+BEV): 0
Constipation: # Patients, AE related to the labelled drug(s) ([1]; pts on MRZ+BEV): 0
Convulsion: # Patients, AE related to the labelled drug(s) ([1]; pts on MRZ+BEV): 0
Delusion: # Patients, AE related to the labelled drug(s) ([1]; pts on MRZ+BEV): 0
Depressed Level of Consciousness: # Patients, AE related to the labelled drug(s) ([1]; pts on MRZ+BEV): 0
Diarrhoea: # Patients, AE related to the labelled drug(s) ([1]; pts on MRZ+BEV): 0
Dizziness: # Patients, AE related to the labelled drug(s) ([1]; pts on MRZ+BEV): 0
Dysarthria: # Patients, AE related to the labelled drug(s) ([1]; pts on MRZ+BEV): 0
Dysphagia: # Patients, AE related to the labelled drug(s) ([1]; pts on MRZ+BEV): 0
Dysphonia: # Patients, AE related to the labelled drug(s) ([1]; pts on MRZ+BEV): 10
Dyspnoea: # Patients, AE related to the labelled drug(s) ([1]; pts on MRZ+BEV): 0
Ear Infection: # Patients, AE related to the labelled drug(s) ([1]; pts on MRZ+BEV): 0
Epistaxis: # Patients, AE related to the labelled drug(s) ([1]; pts on MRZ+BEV): 7
Falls: # Patients, AE related to the labelled drug(s) ([1]; pts on MRZ+BEV): 0
Fatigue: # Patients, AE related to the labelled drug(s) ([1]; pts on MRZ+BEV): 0
Fracture of Femur: # Patients, AE related to the labelled drug(s) ([1]; pts on MRZ+BEV): 0
Hallucination: # Patients, AE related to the labelled drug(s) ([1]; pts on MRZ+BEV): 0
Headache: # Patients, AE related to the labelled drug(s) ([1]; pts on MRZ+BEV): 1
Hemiparesis: # Patients, AE related to the labelled drug(s) ([1]; pts on MRZ+BEV): 0
Hyperglycemia: # Patients, AE related to the labelled drug(s) ([1]; pts on MRZ+BEV): 0
Hypertension: # Patients, AE related to the labelled drug(s) ([1]; pts on MRZ+BEV): 13
Hypokalemia: # Patients, AE related to the labelled drug(s) ([1]; pts on MRZ+BEV): 0
Hyponatremia: # Patients, AE related to the labelled drug(s) ([1]; pts on MRZ+BEV): 0
Hypotension: # Patients, AE related to the labelled drug(s) ([1]; pts on MRZ+BEV): 0
Infusion Site Pain: # Patients, AE related to the labelled drug(s) ([1]; pts on MRZ+BEV): 0
Insomnia: # Patients, AE related to the labelled drug(s) ([1]; pts on MRZ+BEV): 1
Lymphocyte Count Decreased: # Patients, AE related to the labelled drug(s) ([1]; pts on MRZ+BEV): 0
Muscular Weakness: # Patients, AE related to the labelled drug(s) ([1]; pts on MRZ+BEV): 0
Nausea: # Patients, AE related to the labelled drug(s) ([1]; pts on MRZ+BEV): 0
Optic Nerve Disorder: # Patients, AE related to the labelled drug(s) ([1]; pts on MRZ+BEV): 1
Pyramidal Tract Syndrome: # Patients, AE related to the labelled drug(s) ([1]; pts on MRZ+BEV): 0
Tumor Metastasis: # Patients, AE related to the labelled drug(s) ([1]; pts on MRZ+BEV): 0
Vision Blurred: # Patients, AE related to the labelled drug(s) ([1]; pts on MRZ+BEV): 0
Vomiting: # Patients, AE related to the labelled drug(s) ([1]; pts on MRZ+BEV): 0
Anaemia related to the labelled drug(s) [1, 7]: (0.0%)
Anaemia related to the labelled drug(s), patients [1, 7]: 0
Ataxia related to the labelled drug(s) [1, 7]: (0.0%)
Ataxia related to the labelled drug(s), patients [1, 7]: 0
Confusional state related to the labelled drug(s) [1, 7]: (3.7%)
Confusional state related to the labelled drug(s), patients [1, 7]: 1
Constipation related to the labelled drug(s) [1, 7]: (3.7%)
Constipation related to the labelled drug(s), patients [1, 7]: 1
Diarrhoea related to the labelled drug(s) [1, 7]: (3.7%)
Diarrhoea related to the labelled drug(s), patients [1, 7]: 1
Dizziness related to the labelled drug(s) [1, 7]: (3.7%)
Dizziness related to the labelled drug(s), patients [1, 7]: 1
Dysphonia related to the labelled drug(s) [1, 7]: (37.0%)
Dysphonia related to the labelled drug(s), patients [1, 7]: 10
Epistaxis related to the labelled drug(s) [1, 7]: (25.9%)
Epistaxis related to the labelled drug(s), patients [1, 7]: 7
Fall related to the labelled drug(s) [1, 7]: (0.0%)
Fall related to the labelled drug(s), patients [1, 7]: 0
Fatigue related to the labelled drug(s) [1, 7]: (66.7%)
Fatigue related to the labelled drug(s), patients [1, 7]: 18
Hallucination related to the labelled drug(s) [1, 7]: (0.0%)
Hallucination related to the labelled drug(s), patients [1, 7]: 0
Headache related to the labelled drug(s) [1, 7]: (22.2%)
Headache related to the labelled drug(s), patients [1, 7]: 6
Hypertension related to the labelled drug(s) [1, 7]: (40.7%)
Infusion site pain related to the labelled drug(s) [1, 7]: (3.7%)
Infusion site pain related to the labelled drug(s), patients [1, 7]: 1
Muscular weakness related to the labelled drug(s) [1, 7]: (3.7%)
Muscular weakness related to the labelled drug(s), patients [1, 7]: 1
Nausea related to the labelled drug(s) [1, 7]: (7.4%)
Platelet count decreased related to the labelled drug(s) [1, 7]: (11.1%)
Platelet count decreased related to the labelled drug(s), patients [1, 7]: 3
Stomatitis related to the labelled drug(s) [1, 7]: (7.4%)
Upper-airway cough syndrome related to the labelled drug(s) [1, 7]: (18.5%)
Upper-airway cough syndrome related to the labelled drug(s), patients [1, 7]: 5
Vomiting related to the labelled drug(s) [1, 7]: (14.8%)
mean Cmin ([2]; Day 15): 95 µg/mL
Cmax D 1 ([2]; MRZ 0.7 mg/m^2 cohort): 193 ± 8 (2) μg/mL
Cmax D 15 ([2]; MRZ 0.7 mg/m^2 cohort): 402 ± 123 (3) μg/mL
Cmin D 15 ([2]; MRZ 0.7 mg/m^2 cohort): 81.1 ± 17.4 (2) μg/mL
Cmax D 1 ([2]; MRZ 0.8 mg/m^2 cohort): 267 ± 13.3 (3) μg/mL
Cmax D 15 ([2]; MRZ 0.8 mg/m^2 cohort): 380 ± 56.5 (2) μg/mL
Cmin D 15 ([2]; MRZ 0.8 mg/m^2 cohort): 85.0 ± 9.87 (3) μg/mL
mean Cmax ([2]; all dose cohorts, Day 1, 10 mg/kg): 275 µg/mL
pharmacokinetic parameters ([2]; co-administration with marizomib): consistent with published parameters and not affected by co-administration
mean Cmax ([2]; second value printed for Day 1): 379 µg/mL
6 mo Overall Survival ([3]; Field (CABARET), All Pts): 61%
6 mo Progression Free Survival ([3]; Field (CABARET), All Pts): 18%
9 mo Overall Survival ([3]; Field (CABARET), All Pts): 39%
9 mo Progression Free Survival ([3]; Field (CABARET), All Pts): 6%
12 Mo. Overall Survival ([3]; Field (CABARET), All Pts): 24%
6 mo Overall Survival [3, 8]: 18%
9 mo Overall Survival [3, 8]: 30%
9 mo Progression Free Survival [3, 8]: 0%
12 Mo. Overall Survival [3, 8]: 10%
12 Mo. Progression Free Survival [3, 8]: 0%
6 mo Overall Survival [3, 9]: 58%
6 mo Progression Free Survival [3, 9]: 38%
9 mo Overall Survival [3, 9]: 40%
9 mo Progression Free Survival [3, 9]: 22%
12 Mo. Overall Survival [3, 9]: 24%
12 Mo. Progression Free Survival [3, 9]: 10%
6 mo Overall Survival [3, 10]: 25%
6 mo Progression Free Survival [3, 10]: 10%
9 mo Progression Free Survival [3, 10]: 0%
12 Mo. Progression Free Survival [3, 10]: 0%
6 mo Overall Survival ([3]; Taal (BELOB), All Pts): 62%
6 mo Progression Free Survival ([3]; Taal (BELOB), All Pts): 16%
9 mo Overall Survival ([3]; Taal (BELOB), All Pts): 45%
9 mo Progression Free Survival ([3]; Taal (BELOB), All Pts): 8%
12 Mo. Overall Survival ([3]; Taal (BELOB), All Pts): 26%
6 mo Overall Survival ([3]; Taal (BELOB), Methylated): 83%
6 mo Progression Free Survival ([3]; Taal (BELOB), Methylated): 33%
9 mo Overall Survival ([3]; Taal (BELOB), Methylated): 67%
9 mo Progression Free Survival ([3]; Taal (BELOB), Methylated): 22%
12 Mo. Overall Survival ([3]; Taal (BELOB), Methylated): 56%
6 mo Overall Survival ([3]; Taal (BELOB), Unmethylated): 50%
6 mo Progression Free Survival ([3]; Taal (BELOB), Unmethylated): 8%
9 mo Progression Free Survival ([3]; Taal (BELOB), Unmethylated): 0%
12 Mo. Overall Survival ([3]; Taal (BELOB), Unmethylated): 8%
12 Mo. Progression Free Survival ([3]; Taal (BELOB), Unmethylated): 0%
6 mo Progression Free Survival ([3]; Wick (EORTC 26101 P2), All Pts): 14%
9 mo Progression Free Survival ([3]; Wick (EORTC 26101 P2), All Pts): 9%
12 Mo. Progression Free Survival ([3]; Wick (EORTC 26101 P2), All Pts): 8%
6 mo Progression Free Survival [3, 11]: 25%
9 mo Progression Free Survival [3, 11]: 9%
12 Mo. Progression Free Survival [3, 11]: 9%
6 mo Progression Free Survival [3, 12]: 10%
9 mo Progression Free Survival [3, 12]: 10%
12 Mo. Progression Free Survival [3, 12]: 10%
6-month progression-free survival (PFS) rate ([3]; recurrent G4 MG, BEV alone): ~43%
median overall survival (OS) ([3]; recurrent G4 MG, BEV alone): ~9 months
Cmax [4]: 284 µg/mL
